Data on one substance can be found in article doi:10.1101/2022.10.18.22281172.

Experiment [1] has as its target cynomolgus macaque FcRn (cynomolgus macaque) (UniProt Q8SPV9). Nature of the experiment: SPR. On the technique in general: SPR reads the build-up and loss of mass on a sensor chip optically.
Experiment [2] deals with human neonatal Fc receptor (human) (UniProt P55899). Nature of the experiment: SPR.
Sequence of UniProt P55899 (P55899 24-365): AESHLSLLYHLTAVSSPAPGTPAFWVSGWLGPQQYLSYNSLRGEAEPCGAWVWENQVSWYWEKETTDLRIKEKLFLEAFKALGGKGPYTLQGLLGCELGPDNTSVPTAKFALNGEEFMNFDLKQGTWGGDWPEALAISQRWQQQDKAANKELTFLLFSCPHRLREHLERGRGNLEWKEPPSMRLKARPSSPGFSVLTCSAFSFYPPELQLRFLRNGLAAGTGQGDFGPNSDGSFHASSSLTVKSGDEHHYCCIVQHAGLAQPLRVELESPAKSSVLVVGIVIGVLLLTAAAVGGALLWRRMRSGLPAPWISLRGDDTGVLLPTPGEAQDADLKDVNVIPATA

Sequence of UniProt Q8SPV9 (Q8SPV9 24-365): as the sequence (P55899 24-365) above, with N39D, E44Q, G99S, S189G, S190N, L217M, S269T, V319S, L332S, V335I counted along it

Regarding adintrevimab (antibody), the figures for the fold higher affinity relative to ADG2 in experiment [1] and in experiment [2] were 5 fold and 6 fold, respectively.
